According to the nanobody polyreactivity screen of Harvey et al. (2022):

Assay: yeast display, Sf9 membrane polyspecificity reagent, FACS + sequencing; frameworks hold sequencing errors
In short: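 In a synthetic yeast display library (Saccharomyces cerevisiae BJ5465), nanobody expression was induced with galactose for 36–48 hours. FACS gates were set low and high (top ~1%) using anti-HA fluorescence for expression and streptavidin fluorescence for binding of the Sf9 membrane reagent. Each polyreactivity label is drawn from the gate of origin.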

Row | Sequence | polyreactivity (PSR sort gate)
1 | QVQLVESGGGLVQAGGSLRLSCAASGSTIPLYAMGWYRQAPGKERELVAAISRRGGRTYYADSVKGRFTISRDNAKNTVYLQMNSLKPEDTAVYYCATAQGSRVDYWGQGTQVTVSS | high polyreactivity
2 | QVQLVESGGGLVQAGGSLRLSCAASGRIVPGNVMGWYRQAPGKERELVAAISSSGGSTYYADSVKGRFTISRDNAKNTVYLQMNSLKPEDTAVYYCNVRSGGKRRYSGRVDYWGQGTQVTVSS | low polyreactivity
3 | QVQLVESAGGLVQAGGSLRLSCAASGSILVLNAMGWSRQAPGKERELVAAITSRGTRTYYADSVKGRFTISRDNAKNTVYLQLNSLNPEDTAVYYCAAKAGYRYGSLAYYKYDYWGQGTQVTLSS | high polyreactivity
4 | QVQLVESGGGLVQAGGSLRLTCAASGSIFWPNAMGWYRPAPGKERELVAAISWGTGSTYYADSVKGRFTISRDNAKNTVYLQMNSLKPEDTAVYYCAADGAYLDPYYDYWGQGTQVTVSS | low polyreactivity
5 | QVQLVESGGGLVQAGGILRLSCADSGSTFIGYAMGWYRQAPRKERELFAAISKSGGSTYYADSVKGRFTISRDNAKNTVYLQMNSLKPEDTAVYYCIVDTSRYVSWNDYWGQGTQVTVSS | high polyreactivity
6 | QVQLVESGGGLVQAGGSLRLSCAASGRIIYNYAMGWYRQAPGKERELVAAITRSGGSTYYADSVKGRFTISRDNAKNTVYLQMNSLKPEDTAVYYCNATRGFGPPYFYWGQGTQVTVSS | high polyreactivity
7 | QVQLVESGGGLVQAGGSLRLSCAASGRTFGEYVMGGYRQAPGKERELVASISRRGGSTYYADSVKGRFTLSRDNAKNTVYVLMNSQNPEDTAVYYCAKYRTQWSKNLYPYGFDYWGHGTQVTVSS | low polyreactivity
8 | QVQLVESGGGLVQAGGSLRLSCAASGRIFYGYTMGWYRQAPGKERELVAAITWSGGSTHYADSVKGRFTISRDNAKNTVYLQMNSLKPEVTAVYYCNARRRSVYRGLYDYWGQGTQVTVSS | high polyreactivity
9 | QVQLVESAGGLVQAGGSLRLTCAASGRTFTFNTMGWYRQAPGKERELVAAIDGDGTTNYADSVKGRFTISRDNAKNTVYLQMNSLKPEDTAVYYCAADFLYSFWYEPTFDYWGQGTQVTVSS | low polyreactivity
10 | QVQLVESGGGLVQAGGSLRLSCAASGLTFASNAMGWYRQAPGKERELVAAISWSDGSTYYADSVKGRFTISRDNAKNTVYLQMNSLKPEDTAVYYCAADPPGFRTYRVGYWGQGTQVTVSW | low polyreactivity
11 | QVQLVESGGGLVQARGSLRLSCAASGSTFGRYAMGSYRQAPGIERELVAAISLGTTTNYADSVKGRFTISRDNAKNTVYLQMNSLKPEDTAVSYCAADQPSKRYYYWGQGTQVTVSS | low polyreactivity
12 | QVQLVESGGGLVQAGGSLLLSCAASGSTFYLYAMGWYRQAPGKEMELVASISQSGGSTFYADSVKGRFTISRDNAKYTVYLQMNSLKPEDTAVYYCAADPNRSTDTVVPGFDYWGQGTQVTVSS | high polyreactivity
13 | QVQLVESGGGLVQAGGSLRLSCAASGFTFVYYAMGWYRQAPGKERELVAAISRRGGNTNYADSVKGRFTISRDNEKNTVYLQMNSLKTEDTAVYYCNARLTGDRYYYYPMDYWGQGTQVTVST | high polyreactivity
14 | QVQLVESGGGLVQAGGSLRLSCAASGSTFRVNAMGWYRQAPGKEREFVATIRGGGVRTYYADSVKGRFTISRDNAKNTVYLQMNSLKPEDTAVYYCAVAGGTPGAYRRFNYWGQGTQVTVSS | high polyreactivity
15 | QLQLVESGRGLVQAGGSLRLSCAASGIIFYYNAMGWYRQAPGKERELVARITWRAGSTYYADSVKGRFTISRDNAKNTVYLQMNSLKPEDTAVYYCAARFTTTGPRGYYYWGQGTQVTVSS | high polyreactivity
16 | QVQLVETGGGLVQAGGSLRLSCAASGRTYRFNAMGWYRQAPGKERELVASINSGVRTYYADSVKGRFTISRDNAKNTVYLQMNSLKPEDSAVYYCAARYRVRYYERDYWGQGTQVTVSS | high polyreactivity
17 | QVQLVESGGALVQAGGSLRLSCAASGIIFYSYAMGWYRQAPGKERELVAAISNNGGSTYADSVKGRFTISRDNAKNSVYLQMKSVKPEDTAVYYCAADPTGGVGFDGYYWGQGTQVTVSS | low polyreactivity
18 | QVQLVESGGGLVQAGGSLRLSCAASGRTLYRYAMGWYRQAPGKERELVAAISSGGRTYYADSVKGRFTISRDNAKNTVYLQMNSLKPEDTAVYYCAAERGWWRNDFDYWGQGTQVTVSS | high polyreactivity
19 | QVQLVESGGGLVQAGGSLRLSCAASGSIFLSYDMGWYRQAPGKERELVAAITQSGGSTYYADSVKGRFTISRDNAKNTVYLQINSLIPEDTAVYYCAADYGYLPQETYPTYGYYYWGQGTQVTVSS | low polyreactivity
20 | QVQLVESGGGLVQAGGSLRLSCAASGGTFSPYAMGWYRQAPGKERELVAVIRSDVTTNYADSVKGRFTISRDNAKNTVYLQMNSLKPEDTAVYYCNVERHRVWDYQWREEDDYWGQGTQVTVSS | low polyreactivity
21 | QVQLVESGGGLVQAGGSLRLSCAASGTFWGYAMGWYRQAPGKERELVAAISASGASTSYADSVKGRFTISRDNAKNTVYLQMNSLKPEDTAVYYCDARRNTAYGYWGQGTQVTVSS | high polyreactivity
22 | QVQLVESGGGLVQAGGSLRLSCAASGIIFVTNDMGWYRQAPGKERELVATITWSGGSTYYADSVKGRFTISRDNAKNTVYLQMNSLKPEDSAVYYCAAESRYTWIHSRDYWGQGTQVTVSS | low polyreactivity

Row | Sequence | polyreactivity (PSR sort gate)
23 | QVQLVESGGGLVQAGGSLRLICAASGSTFTGYAMGWYRQAPGKERELVAAISISGGRTFYADSVKGRFTISRDNAKNTVYLQMNSLKPEDTAVYYCAAFLRGSKYSFDYWGQGTQVTVSS | high polyreactivity
24 | QVQHVESCGGLVQAGGSLRLSCAASGRIINSNDMGWYRQAPGKERELVAAISKRGGSTFYADSVKGRFTISRDNAKNTVYLQRNSLKPEDTAVYYCAADKWTYYYAVDSWGQGTQVTVSS | high polyreactivity
25 | QVQLVESGGGIVQAGGSLRLSCAASGITSYFNAMGWYRQAPGKERELVAITWNGGSTYYADSVKGRFTISRDNAMNTVYLQMNSLKPEDTAVYYCAARYRRYNRKYDYWGQGTQVTVSS | high polyreactivity
26 | QVQLVDSGGGLVQAGGILRLSSPASGSTFKYYTMGRSRQAPGKEREWVAGITLSGPTTYYADSVKGRFTISRDNAKNTVYLQMNSLKPEDTAVYYCAADYYHDFNAYYYWGQGTQVTVSS | low polyreactivity
27 | QVQLVESGGGLVQAGGSLRLSCAASGRIFYSYAMGGYRQAPGKERELVAAISSAGSTYYADSVKGSFTISRDNAKNTVYLQMNSLKPEDTAVYYSAKGIWPYHGYRLQRVYDSWGQGTQVTVSS | high polyreactivity
28 | QVQLVESGGGLVQAGGSLRLSCAASGRIFIINAMGWYRQAPGKERELVAAITGTGSTYYADSVKGRFTISRDNAKNTVYLQMNSLKPEDTAVYYCAADVSYTYYGFWYDEYYWGQGTQVTVSS | high polyreactivity
29 | QVQLVESGGGLVQAGGSLRLSCAASGRTFRGNAMGWYRQAPAKDRELVGAGGSTYYADSVKGRFTISRDNAKNTVYLQMNSLKPEASAVYYCGAALGFSRYSWFGYGYWGQGTQVTVSS | low polyreactivity
30 | QVQLVESGGGLVQAGGSLRLSCAASGSIFFGNAMGWYRQAPGKERELVAAISSRGTSTYYADSVKGRFTISRDNAKNTVYLQMNSLKPEDTAVYYCNKRVRTFRGGPLAGYDYWGQGTQVTVSS | high polyreactivity
31 | QVQLVESGGGLVQAGGSLRLSCADSGSTFNIYAMGWYRQAPGKERELVAAISSGGTTYYADSVKGRFTISRDNAKNTVYLQMNSLKPEDTAVYYCAALTSSLPAYGYWGQGTQVTVSS | low polyreactivity
32 | QVQLVESGGGLVQAGGSLRLSCAASGTTFTFNAMGWYRQAPGKEREFVAAITASGGRTYYADSVKGRFTISRDNAKNTVYLQMNSLKPEDTAVYYCAAHACLLGPGDFNYWGQGTQVTVSS | low polyreactivity
33 | QVQLVESGGGLVQAGGSLRLSCAASGRTFPYNAMGWYRQAPGKERELVAAISWRGGSTYYADSVKGRFTISRDNAKNTVYLQMNSLKPEDTAVYYCNALYPVSYDHRGDYWGQGTQVTVSS | high polyreactivity
34 | QVQLVESGGGLVQAGGSLRLSCAASGRIFQTYAMGWYRQAPGNERELVARIRLSGGSTYYADSVKGRFTISRDNAKNTVYLQMNRLKPEATAVYYCAALYSRARFTDPYYYWGQGTQVTVSS | high polyreactivity
35 | QVQLVESGGGLVQAGGSLRLSCAAAGIIFILYTMGWYRKAPGKERELVATISSGGGSTFYADSVKGRFTISRDNAKNTVYLQMHRLKPEDTAVYYCAAFPVFGYSYDYWGQGTQVTVSS | low polyreactivity
36 | QVQLVESGGGLVQAGGSLRLSCAASGITFRYYAMGWYRPAPGKERELVAALTSGGSTNYADSVKGRFTISRDNAKNTVYLQMNSLIPEDTAVYYCAATSYYRTNYGLVFLYRRNYWGQGTQVTVSS | high polyreactivity
37 | QVQLVESGGGLVQAGGSLRLTCAASGSNFQYYAMGWYRQAPGKERELVAAISSGDTTNYADSVKGRFTISRDNAKNTVYLQMNSLKPEDTAVYYCNAEGGWYDWDDYWGQGTQVTVSS | low polyreactivity
38 | QVQLVESGGGLVQAGGSLRLSCAASGSTFFVNAMGWYRQPPGKERELVAAISTSGGRTYYADSVKGRFTISRDNAKNTVYLQMNSLKPEDTAVYYCAAYLRSPKGYYYWGQGTQVTVSS | high polyreactivity
39 | QVQLVESGGGLVQAGGSLRLSCAASGSTFSYMGWYRQAPGKERELVAAISYRGGRTYYADSVKGRFTISRDNAKNTVYLQMNSLTPEDTAVYYCNADGGRTYYSRYDYWGQGTQVTVSS | low polyreactivity
40 | QVQLVESGGGLVQAGGSLRLTCAASGSTFPYNAMGWYRPATGKERELVASITGGRKKYADSVKGRFTISRDNEKNTVYLQMNRLKREDTAVYYCAADYYSLWIRRDSNYWGQGTQVTVSS | low polyreactivity
41 | QVQLVESGGGLVQAGGSLRLSCAASGSILQRYAMGWYRQAPGKERELVAAISTSGSSTYYADSVKGRFTISRDNAKNTVYLQMNSLKPEDTAVYYCAAKSRKFDYWGQGTQVTVSS | high polyreactivity
42 | QVQLVESGGGLVQAGGSLRLSCAASGSIFPGYAMGWYRQAPGKERELVATITWSGGSTYYADSVKGRFTISRDKAKNTVYLQMNSLKPEDTAVYYCNADSNWYYQWNYYGLYDYWGQGTQVTVSS | low polyreactivity
43 | QVQLVESGGGLVQAGGSLRLSCAATGSIFRGYAMGWYRQAPGKERELVAAITSGGSTNYADSVKGRFTISRDNAKNTVYLQMNSLKPEDTAVYYCAKDLALVAPLSDYWGQGTQVTVSW | low polyreactivity
